Data on 1 substance can be found in publication PMC7644594.

The experiment addresses EPHA2 tagged with a fluorescent protein for FRET (EPHA2-mClover3, EPHA2-mRuby3) (human) (UniProt P29317). The experiment can be described thus: FRET or BRET. On the technique in general: BRET reads energy transfer from a luciferase to a nearby fluorophore.

“EPHA2 tagged with a fluorescent protein for FRET (EPHA2-mClover3, EPHA2-mRuby3) (from UniProt P29317 24-976) (receptor)” registered a N-FRET of 0.347.
